Where two headings read alike, the source gives them in different places.
B1: HA-R399E (HA-tagged PKM2 mutant R399E expressed in SW480 cells) (enzyme)
chain: not shown
B2: Recombinant PKM2 mutant R399E (enzyme)
chain: not shown

Experiments:
SEC [1] = biological target: the molecule itself; assay: SEC
SEC [2] = biological target: the molecule itself; assay: SEC; remark: listed apart in the source

Protein | stoichiometry N (SEC [1]) | stoichiometry N (SEC [2])
B1 | 2 | –
B2 | – | 2

— publication PMC3299833 (Molecular Cell, 2012)
